How the values were obtained:
PSMA = target: T1, PSMA (Homo sapiens, UniProt Q04609); test: Cell-based radioligand competitive binding assay (^125I-C-8, LNCaP cells); details: C-1 = 1.00
T1 construct: host or cells: LNCaP cells
Experimental: The culture medium was replaced with fresh medium every 2-3 days. Experiments were performed with cells at 70-80% confluence.
The final volume in each well was maintained at 200 μL and insufficient volume was adjusted by the binding buffer.

[1] = Ex-vivo mouse plasma stability study of ^177Lu-labeled compounds; type: in vitro ADME; details: 37° C.
Experimental: Plasma Stability Study (Mouse and Human)
Mouse blood was collected via cardiac puncture of the left ventricle. Blood was placed into heparin-coated microfuge tubes and then centrifuged at 3500 rpm for 10 min to separate plasma for stability studies. Human plasma was purchased directly.
At each time point (0, 1, 2, 4, 24, 48 72 h), an aliquot of 25 μL sample was taken and mixed with 100 μL methanol containing 1% formic acid, vertex for 30-60 sec, then centrifuged at 20000 rpm for 10 min. 100 μL supernatant was collected and diluted with 40 μL H2O. 100 μL of the resulting mixture was injected to radio-HPLC for stability assessment, as shown examples FIG. 2 and FIG. 3. The best-fit T½ value of test compounds were calculated by fitting the data with linear or non-linear regression using GraphPad Prism 8.0.1.

[2] = tested on: PC-3 PIP tumor-bearing mice; test: Biodistribution study in SCID mice bearing PC3-PIP tumor; type: in vivo, mouse; details: for T/K at 4 h (tumor uptake/kidney uptake) / T at 24 h (tumor uptake) / T/K at 24 h (tumor uptake/kidney uptake) / T at 96 h (tumor uptake) / T/K at 96 h (tumor uptake/kidney uptake): PC3 PIP tumor-bearing mice
Experimental: Biodistribution Study in SCID Mice Bearing PC3-PIP Tumor
Severe combined immunodeficient (ICR-SCID) mice from the Institute of Cancer Research (Taconic Farms, Germantown, NY) were utilized for these studies. […] These mice received bilateral subcutaneous rear flank injections of approximately 10×10^6 PC-3 PIP cells (prostate cancer cell PC-3 stably expressing human PSMA) suspended in 100 μL of 0.9% NaCl. […] The tissues and organs were weighed, counted in a PerkinElmer Wizard 3 automatic γ counter, and the percent injected dose (% ID) and % ID/g of each organ or tissue were calculated, as shown in Tables 5-24 and FIG. 1 and FIG. 2.

LNCap tumor-bearing mice = test: Biodistribution study in CB-17 SCID mice bearing LNCap tumor; type: in vivo, mouse
Experimental: Biodistribution Study in CB-17 SCID Mice Bearing LNCap Tumor
All animal care and experimental procedure were performed by following the animal protocols approved by the ethics committee of China Institute of Radiation Protection. The CB-17 SCID mice (Charles River, Beijing) were utilized for these studies. […] These mice received subcutaneous rear flank injections of approximately 4×10^6 LNCap cells suspended in 200 μL of phosphate-buffered saline (PBS) and Matrigel (Corning) (1/1).

[3] = based on the mean value of the IC50 number
[4] = * = value obtained using nonlinear regression

T1 sequence (Q04609 whole entry): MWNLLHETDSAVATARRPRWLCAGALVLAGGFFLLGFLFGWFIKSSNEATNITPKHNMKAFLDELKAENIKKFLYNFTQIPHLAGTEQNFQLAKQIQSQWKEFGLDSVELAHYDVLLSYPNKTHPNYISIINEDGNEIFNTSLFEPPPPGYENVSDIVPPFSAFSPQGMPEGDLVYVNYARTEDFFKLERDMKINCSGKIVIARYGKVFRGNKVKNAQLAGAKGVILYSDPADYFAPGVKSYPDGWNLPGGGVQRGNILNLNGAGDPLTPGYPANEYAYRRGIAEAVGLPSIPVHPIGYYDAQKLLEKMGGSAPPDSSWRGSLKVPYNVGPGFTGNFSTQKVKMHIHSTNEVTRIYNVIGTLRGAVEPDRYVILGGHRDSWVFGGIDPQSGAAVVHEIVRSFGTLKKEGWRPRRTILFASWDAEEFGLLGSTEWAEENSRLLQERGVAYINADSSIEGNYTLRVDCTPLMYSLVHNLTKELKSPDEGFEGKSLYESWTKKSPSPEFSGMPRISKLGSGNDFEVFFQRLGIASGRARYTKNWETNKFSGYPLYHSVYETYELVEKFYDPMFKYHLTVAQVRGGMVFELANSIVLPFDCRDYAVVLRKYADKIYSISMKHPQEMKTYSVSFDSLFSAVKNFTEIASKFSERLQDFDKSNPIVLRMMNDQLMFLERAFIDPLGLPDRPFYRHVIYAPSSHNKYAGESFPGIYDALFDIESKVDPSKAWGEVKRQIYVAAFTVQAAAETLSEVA

| Compound | Relative Binding Affinity (PSMA; [3]) | Relative Binding Affinity (PSMA; relative) | % Remaining 0 min [1] | % Remaining 1 h [1] | % Remaining 4 h [1] | % Remaining 24 h [1] | % Remaining 48 h [1] | % Remaining 72 h [1] | T/K at 4 h (tumor uptake/kidney uptake) [2] | T at 24 h (tumor uptake) [2] | T/K at 24 h (tumor uptake/kidney uptake) [2] | T at 96 h (tumor uptake) [2] | T/K at 96 h (tumor uptake/kidney uptake) [2] | also measured |
| --- | --- | --- | --- | --- | --- | --- | --- | --- | --- | --- | --- | --- | --- | --- |
| HO-C18-gGlu-OEG-OEG-Gly-5hPA-Lys(DOTA)-OEG-Trx-2NaI-eKuE [Example I-49] | 0.09 | 0.09 |  |  |  |  |  |  |  |  |  |  |  |  |
| O=C(O)CC[C@H](NC(=O)N[C@@H](CCCCNC(=O)[C@H](Cc1ccc2ccccc2c1)NC(=O)[C@H]1CC[C@H](CNC(=O)[C@H](CCCCNC(=O)CCCOC(=O)CNC(=O)CN2CCN(CC(=O)O)CCN(CC(=O)O)CCN(CC(=O)O)CC2)NC(=O)[C@H](CCC(=O)O)NC(=O)CCCc2ccc(I)cc2)CC1)C(=O)O)C(=O)O [Example I-3, 4pIBA-Glu-Lys(-ESL1-DOTA)-Trx-2NaI-eKuE] | 1.30 | 1.30 | 100% | 88.6% | 54.8% | 13.0% | 9.30% | 3.99% | 0.3 | 13.9 | 0.8 | 6.3 | 4.0 | T½ (h) [1, 4]: 4.9* h |
| O=C(O)CC[C@H](NC(=O)N[C@@H](CCCCNC(=O)[C@H](Cc1ccc2ccccc2c1)NC(=O)[C@H]1CC[C@H](CNC(=O)COCCOCCNC(=O)[C@H](CCCCNC(=O)CCCOC(=O)CNC(=O)CN2CCN(CC(=O)O)CCN(CC(=O)O)CCN(CC(=O)O)CC2)NC(=O)[C@H](CCCCNC(=O)COCCOCCNC(=O)COCCOCCNC(=O)[C@H](CCC(=O)O)NC(=O)CCCc2ccc(I)cc2)NC(=O)COCCOCCNC(=O)COCCOCCNC(=O)[C@H](CCC(=O)O)NC(=O)CCCc2ccc(I)cc2)CC1)C(=O)O)C(=O)O [Example I-7, 4pIBA-Glu-OEG-OEG-Lys(-OEG-OEG-Glu-4pIBA)-Lys(-ESL1-DOTA)-OEG-Trx-2NaI-eKuE] | 0.56 | 0.54 |  |  |  |  |  |  | 0.7 | 16.7 | 0.9 | 2.6 | 1.4 |  |
| DOTA-gGlu(-eLys-4pIBA)-Trx-2NaI-eKuE [Example C-9, reference compound] | 0.92 |  |  |  |  |  |  |  |  |  |  |  |  |  |
| HO-C18-gGlu-OEG-OEG-OEG-Lys(DOTA)-OEG-Trx-2NaI-eKuE [Example C-6, reference compound] | 0.05 | 0.05 |  |  |  |  |  |  |  |  |  |  |  |  |
| O=C(O)CCCCCCCCCCCCCCCCC(=O)N[C@@H](CCC(=O)NCCOCCOCC(=O)NCCOCCOCC(=O)N[C@@H](CCCCNC(=O)CCCOC(=O)CNC(=O)CNC(=O)CNC(=O)CNC(=O)CN1CCN(CC(=O)O)CCN(CC(=O)O)CCN(CC(=O)O)CC1)C(=O)NCCOCCOCC(=O)NC[C@H]1CC[C@H](C(=O)N[C@@H](Cc2ccc3ccccc3c2)C(=O)NCCCC[C@H](NC(=O)N[C@@H](CCC(=O)O)C(=O)O)C(=O)O)CC1)C(=O)O [Example I-46, HO-C18-gGlu-OEG-OEG-Lys(-ESL1-Gly-Gly-Gly-DOTA)-OEG-Trx-2NaI-eKuE] |  |  | 100% | 95.1% | 93.5% | 81.9% | 70.6% | 55.9% |  |  |  |  |  | T½ (h) [1, 4]: 102* h |
| O=C(O)CC[C@H](NC(=O)N[C@@H](CCCCNC(=O)[C@H](Cc1ccc2ccccc2c1)NC(=O)[C@H]1CC[C@H](CNC(=O)[C@H](CCCCNC(=O)CN2CCN(CC(=O)O)CCN(CC(=O)O)CCN(CC(=O)O)CC2)NC(=O)CCCOC(=O)CNC(=O)[C@H](CCC(=O)O)NC(=O)CCCc2ccc(I)cc2)CC1)C(=O)O)C(=O)O [Example I-2, 4pIBA-Glu-ESL1-Lys(DOTA)-Trx-2NaI-eKuE] | 1.59 | 0.75 | 100% | 95.6% | 93.2% | 76.5% | 67.5% | 57.3% | 0.6 | 32.4 | 5.0 | 9.8 | 10.1 | T½ [1, 4]: 80.4 h; uptake ratio between tumor to kidney ([2]; mice bearing PC3-PIP tumor, compared to HTK01169 (C-2)): improved uptake ratio between tumor to kidney |
| O=C(O)CC[C@H](NC(=O)N[C@@H](CCCCNC(=O)[C@H](Cc1ccc2ccccc2c1)NC(=O)[C@H]1CC[C@H](CNC(=O)[C@H](CCCCNC(=O)CCC(=O)NCCSSCCNC(=O)CN2CCN(CC(=O)O)CCN(CC(=O)O)CCN(CC(=O)O)CC2)NC(=O)[C@H](CCC(=O)O)NC(=O)CCCc2ccc(I)cc2)CC1)C(=O)O)C(=O)O [Example I-4, 4pIBA-Glu-Lys(-SSL1-DOTA)-Trx-2NaI-eKuE] | 0.95 | 0.95 |  |  |  |  |  |  | 0.1 | 0.79 | 0.2 | 0.3 | 1.2 |  |
| O=C(O)CC[C@H](NC(=O)N[C@@H](CCCCNC(=O)[C@H](Cc1ccc2ccccc2c1)NC(=O)[C@H]1CC[C@H](CNC(=O)[C@H](CCCCNC(=O)CN2CCN(CC(=O)O)CCN(CC(=O)O)CCN(CC(=O)O)CC2)NC(=O)[C@H](CCC(=O)O)NC(=O)CCCc2ccc(I)cc2)CC1)C(=O)O)C(=O)O [Example C-2, 4pIBA-Glu-Lys(DOTA)-Trx-2NaI-eKuE, reference compound] | 1.78 | 1.78 | 100% | 100% | 100% | 100% | 100% | 100% | 0.3 | 41.1 | 1.0 | 20.0 | 3.7 | T½ (h) [1, 4]: Stable; uptake ratio between tumor to kidney ([2]; compared to PSMA-617 (C-1)): poor uptake ratio between tumor to kidney |
| Cc1ccc(CCCC(=O)NCCCC[C@H](NC(=O)CN2CCN(CC(=O)O)CCN(CC(=O)O)CCN(CC(=O)O)CC2)C(=O)NCC2CCC(C(=O)N[C@@H](Cc3ccc4ccccc4c3)C(=O)NCCCC[C@H](NC(=O)N[C@@H](CCC(=O)O)C(=O)O)C(=O)O)CC2)cc1 (stereo partly shown) [Example C-10, DOTA-Lys(pTBA)-Trx-2NaI-eKuE] |  | 0.92 |  |  |  |  |  |  |  |  |  |  |  | T at 24 h (tumor uptake) (LNCap tumor-bearing mice; LNCap tumor-bearing mice, 24 h): 46.5; T/K at 24 h (tumor uptake/kidney uptake) (LNCap tumor-bearing mice; LNCap tumor-bearing mice, 24 h): 0.89; T at 96 h (tumor uptake) (LNCap tumor-bearing mice; LNCap tumor-bearing mice, 96 h): 34.9; T/K at 96 h (tumor uptake/kidney uptake) (LNCap tumor-bearing mice; LNCap tumor-bearing mice, 96 h): 3.17; uptake ratio between tumor to kidney (LNCap tumor-bearing mice; compared to PSMA-617 (C-1)): poor uptake ratio between tumor to kidney |
| (HO-C18-gGlu-Lys(-OEG-DOTA)-OEG-OEG-OEG-NH2CH2CH2NH-TMA(-OEG-Trx-2NaI-eKuE)2 [Example C-7, reference compound] | 0.14 | 0.14 |  |  |  |  |  |  |  |  |  |  |  |  |
| [HO-C20-gGlu-Lys(-ESL1-ESL1-ESL1-DOTA)-OEG-OEG-OEG-NH2CH2CH2NH—]-TMA-(-OEG-Trx-2NaI-eKuE)2 [Example I-44] | 0.13 |  |  |  |  |  |  |  |  |  |  |  |  |  |

— patent US12214059B2, “Cleavable radioligands for targeting cell surface receptors and uses thereof” (Full-Life Te[…] Limited, priority 2021, dated 2025)
